Numbering of substitutions follows the chain as printed. Names and notes keep the numbering of the source. Values belong to the binder of their own block, whether it stands above or below them.
Columns and labels:
[1] = molecular target: T1, Recombinant Human DLL4 (delta-like protein 4) (human, UniProt Q9NR61 27-524); experiment: ECL (MSD) binding assay, immobilised DLL4, 10 nM Fab;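 further: fab binding read as electrochemiluminescence via a TAG-labelled detection antibody, 1 h incubations at 20 °C, antigen signal compared with each well's blank, ratio of at least 4 scored as binder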
T1 construct: Bought recombinant human DLL4 (R&D Systems Cat#1506-D4/CF); also called rHuman DLL4

[2] = molecular target: T1, Recombinant Human DLL4 (delta-like …); experiment: ELISA, DLL4-coated plate, 100 nM Fab
[3] = molecular target: T2, Recombinant Human DLL4 (delta-like protein 4) (human, UniProt Q9NR61 27-524); experiment: ELISA, DLL4 coated on plate, Fab at 100 nM
T2 construct: also called rHuman DLL4; Delta-like 4

ECL Signal [10 nM Fab] [1]: 26300 | ELISA Signal [100 nM Fab] [2]: 0.01
B1: Fab VH5-51_IGHD5-18*01>3_IGHJ4*01 G100K/G104T & V3-4_IGLJ1*01 M94F (Fab, V domains shown)
VH: EVQLVQSGAEVKKPGESLKISCKGSGYSFTSYWIGWVRQMPGKGLEWMGIIYPGDSDTRYSPSFQGQVTISADKSISTAYLQWSSLKASDTAMYYCARRKYSYTYDYFDYWGQGTLVTVSS
VL: QTVVTQEPSFSVSPGGTVTLTCGLSSGSVSTSYYPSWYQQTPGQAPRTLIYSTNTRSSGVPDRFSGSILGNKAALTITGAQADDESDYYCVLYFGSGISYVFGTGTKVTVL
notes: Fab; expressed with CH1 (His and Flag tags) and lambda CL from the expression plasmids; also called H:KT & M94F

ELISA Signal-blank (100 nM Fab) [3]: 0.09
B2: Fab VH5-51_IGHD5-18*01>3_IGHJ4*01 G100K/G104T G24T/S28R/G35V & V3-4_IGLJ1*01 V91L/S96P T53E (Fab, V domains shown)
VH: B1 VH with G24T, S28R, G35V
VL: B1 VL with T53E, V91L, F94M, S96P
notes: Fab expressed in E. coli; heavy chain vector adds CH1 with His6 and Flag tags, light chain vector adds lambda CL; also called H:KT TRV & L:LP T53E

ECL Signal [10 nM Fab] [1]: 52700 | ELISA Signal [100 nM Fab] [2]: 0.01
B3: Fab VH5-51_IGHD5-18*01>3_IGHJ4*01 G100K/G104T & V3-4_IGLJ1*01 M94D (Fab, V domains shown)
VH: B1 VH
VL: B1 VL with F94D
notes: Fab; expressed with CH1 (His and Flag tags) and lambda CL from the expression plasmids; also called H:KT & M94D

ELISA Signal-blank (100 nM Fab) [3]: 0.3
B4: Fab VH5-51_IGHD5-18*01>3_IGHJ4*01 G100K/G104T G24T/S28R/G35V & V3-4_IGLJ1*01 V91L/S96P T53I (Fab, V domains shown)
VH: B1 VH with G24T, S28R, G35V
VL: B1 VL with T53I, V91L, F94M, S96P
notes: Fab expressed in E. coli; heavy chain vector adds CH1 with His6 and Flag tags, light chain vector adds lambda CL; also called H:KT TRV & L:LP T53I

ELISA Signal-blank (100 nM Fab) [3]: 0.18
B5: Fab VH5-51_IGHD5-18*01>3_IGHJ4*01 G100K/G104T G24T/S28R/G35V & V3-4_IGLJ1*01 V91L/S96P T53L (Fab, V domains shown)
VH: B1 VH with G24T, S28R, G35V
VL: B1 VL with T53L, V91L, F94M, S96P
notes: Fab expressed in E. coli; heavy chain vector adds CH1 with His6 and Flag tags, light chain vector adds lambda CL; also called H:KT TRV & L:LP T53L

ELISA Signal-blank (100 nM Fab) [3]: 0.22
B6: Fab VH5-51_IGHD5-18*01>3_IGHJ4*01 G100K/G104T G24T/S28R/G35V & V3-4_IGLJ1*01 V91L/S96P T53Y (Fab, V domains shown)
VH: B1 VH with G24T, S28R, G35V
VL: B1 VL with T53Y, V91L, F94M, S96P
notes: Fab expressed in E. coli; heavy chain vector adds CH1 with His6 and Flag tags, light chain vector adds lambda CL; also called H:KT TRV & L:LP T53Y

ELISA Signal-blank (100 nM Fab) [3]: 0.29
B7: Fab VH5-51_IGHD5-18*01>3_IGHJ4*01 G100K/G104T G24T/S28R/G35V & V3-4_IGLJ1*01 V91L/S96P S52W (Fab, V domains shown)
VH: B1 VH with G24T, S28R, G35V
VL: B1 VL with S52W, V91L, F94M, S96P
notes: Fab expressed in E. coli; heavy chain vector adds CH1 with His6 and Flag tags, light chain vector adds lambda CL; also called H:KT TRV & L:LP S52W

ELISA Signal-blank (100 nM Fab) [3]: 0.18
B8: Fab VH5-51_IGHD5-18*01>3_IGHJ4*01 G100K/G104T G24T/S28R/G35V & V3-4_IGLJ1*01 V91L/S96P T53S (Fab, V domains shown)
VH: B1 VH with G24T, S28R, G35V
VL: B1 VL with T53S, V91L, F94M, S96P
notes: Fab expressed in E. coli; heavy chain vector adds CH1 with His6 and Flag tags, light chain vector adds lambda CL; also called H:KT TRV & L:LP T53S

ELISA Signal-blank (100 nM Fab) [3]: 0.15
B9: Fab VH5-51_IGHD5-18*01>3_IGHJ4*01 G100K/G104T G24T/S28R/G35V & V3-4_IGLJ1*01 V91L/S96P T53N (Fab, V domains shown)
VH: B1 VH with G24T, S28R, G35V
VL: B1 VL with T53N, V91L, F94M, S96P
notes: Fab expressed in E. coli; heavy chain vector adds CH1 with His6 and Flag tags, light chain vector adds lambda CL; also called H:KT TRV & L:LP T53N

ELISA Signal-blank (100 nM Fab) [3]: 0.16
B10: Fab VH5-51_IGHD5-18*01>3_IGHJ4*01 G100K/G104T G24T/S28R/G35V & V3-4_IGLJ1*01 V91L/S96P T53D (Fab, V domains shown)
VH: B1 VH with G24T, S28R, G35V
VL: B1 VL with T53D, V91L, F94M, S96P
notes: Fab expressed in E. coli; heavy chain vector adds CH1 with His6 and Flag tags, light chain vector adds lambda CL; also called H:KT TRV & L:LP T53D

ELISA Signal-blank (100 nM Fab) [3]: 0.12
B11: Fab VH5-51_IGHD5-18*01>3_IGHJ4*01 G100K/G104T G24T/S28R/G35V & V3-4_IGLJ1*01 V91L/S96P T53K (Fab, V domains shown)
VH: B1 VH with G24T, S28R, G35V
VL: B1 VL with T53K, V91L, F94M, S96P
notes: Fab expressed in E. coli; heavy chain vector adds CH1 with His6 and Flag tags, light chain vector adds lambda CL; also called H:KT TRV & L:LP T53K

ELISA Signal-blank (100 nM Fab) [3]: 0.4
B12: Fab VH5-51_IGHD5-18*01>3_IGHJ4*01 G100K/G104T G24T/S28R/G35V & V3-4_IGLJ1*01 V91L/S96P S52L (Fab, V domains shown)
VH: B1 VH with G24T, S28R, G35V
VL: B1 VL with S52L, V91L, F94M, S96P
notes: Fab expressed in E. coli; heavy chain vector adds CH1 with His6 and Flag tags, light chain vector adds lambda CL; also called H:KT TRV & L:LP S52L

ELISA Signal-blank (100 nM Fab) [3]: 0.11
B13: Fab VH5-51_IGHD5-18*01>3_IGHJ4*01 G100K/G104T G24T/S28R/G35V & V3-4_IGLJ1*01 V91L/S96P T53Q (Fab, V domains shown)
VH: B1 VH with G24T, S28R, G35V
VL: B1 VL with T53Q, V91L, F94M, S96P
notes: Fab expressed in E. coli; heavy chain vector adds CH1 with His6 and Flag tags, light chain vector adds lambda CL; also called H:KT TRV & L:LP T53Q

ELISA Signal-blank (100 nM Fab) [3]: 0.29
B14: Fab VH5-51_IGHD5-18*01>3_IGHJ4*01 G100K/G104T G24T/S28R/G35V & V3-4_IGLJ1*01 V91L/S96P T53V (Fab, V domains shown)
VH: B1 VH with G24T, S28R, G35V
VL: B1 VL with T53V, V91L, F94M, S96P
notes: Fab expressed in E. coli; heavy chain vector adds CH1 with His6 and Flag tags, light chain vector adds lambda CL; also called H:KT TRV & L:LP T53V

ELISA Signal-blank (100 nM Fab) [3]: 0.41
B15: Fab VH5-51_IGHD5-18*01>3_IGHJ4*01 G100K/G104T G24T/S28R/G35V & V3-4_IGLJ1*01 V91L/S96P S52Y (Fab, V domains shown)
VH: B1 VH with G24T, S28R, G35V
VL: B1 VL with S52Y, V91L, F94M, S96P
notes: Fab expressed in E. coli; heavy chain vector adds CH1 with His6 and Flag tags, light chain vector adds lambda CL; also called H:KT TRV & L:LP S52Y

ELISA Signal-blank (100 nM Fab) [3]: 0.42
B16: Fab VH5-51_IGHD5-18*01>3_IGHJ4*01 G100K/G104T G24T/S28R/G35V & V3-4_IGLJ1*01 V91L/S96P S52I (Fab, V domains shown)
VH: B1 VH with G24T, S28R, G35V
VL: B1 VL with S52I, V91L, F94M, S96P
notes: Fab expressed in E. coli; heavy chain vector adds CH1 with His6 and Flag tags, light chain vector adds lambda CL; also called H:KT TRV & L:LP S52I

ELISA Signal-blank (100 nM Fab) [3]: 0.34
B17: Fab VH5-51_IGHD5-18*01>3_IGHJ4*01 G100K/G104T G24T/S28R/G35V & V3-4_IGLJ1*01 V91L/S96P S52T (Fab, V domains shown)
VH: B1 VH with G24T, S28R, G35V
VL: B1 VL with S52T, V91L, F94M, S96P
notes: Fab expressed in E. coli; heavy chain vector adds CH1 with His6 and Flag tags, light chain vector adds lambda CL; also called H:KT TRV & L:LP S52T

ECL Signal [10 nM Fab] [1]: 20300 | ELISA Signal [100 nM Fab] [2]: 0.01
B18: Fab VH5-51_IGHD5-18*01>3_IGHJ4*01 G100K/G104T & V3-4_IGLJ1*01 M94G (Fab, V domains shown)
VH: B1 VH
VL: B1 VL with F94G
notes: Fab; expressed with CH1 (His and Flag tags) and lambda CL from the expression plasmids; also called H:KT & M94G

ELISA Signal-blank (100 nM Fab) [3]: 0.44
B19: Fab VH5-51_IGHD5-18*01>3_IGHJ4*01 G100K/G104T G24T/S28R/G35V & V3-4_IGLJ1*01 V91L/S96P S52V (Fab, V domains shown)
VH: B1 VH with G24T, S28R, G35V
VL: B1 VL with S52V, V91L, F94M, S96P
notes: Fab expressed in E. coli; heavy chain vector adds CH1 with His6 and Flag tags, light chain vector adds lambda CL; also called H:KT TRV & L:LP S52V
